Laboratory results from patent publication US20230190900 (published 2023).

Tests used:
[1] = molecular target: T1, cynomolgus FcγRIIa (CD32A) (cynomolgus); experiment: SPR
T1 chain: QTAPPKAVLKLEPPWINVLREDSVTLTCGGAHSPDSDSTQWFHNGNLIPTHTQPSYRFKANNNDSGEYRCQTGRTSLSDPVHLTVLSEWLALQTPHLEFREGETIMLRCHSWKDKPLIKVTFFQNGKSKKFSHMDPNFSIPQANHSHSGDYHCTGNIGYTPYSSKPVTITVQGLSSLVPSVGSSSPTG

murine FcγRIV (CD16-2) = molecular target: T2, murine FcγRIV (CD16-2) (mouse, UniProt A0A0B4J1G0); experiment: SPR
T2 chain: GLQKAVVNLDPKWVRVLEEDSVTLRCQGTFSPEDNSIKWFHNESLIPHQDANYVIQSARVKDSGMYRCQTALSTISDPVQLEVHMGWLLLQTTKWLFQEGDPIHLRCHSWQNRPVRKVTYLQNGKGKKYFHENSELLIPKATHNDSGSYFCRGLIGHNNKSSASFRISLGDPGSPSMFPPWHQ

murine FcγRI = molecular target: T3, murine FcγRI (mouse, UniProt P26151); experiment: SPR
T3 chain: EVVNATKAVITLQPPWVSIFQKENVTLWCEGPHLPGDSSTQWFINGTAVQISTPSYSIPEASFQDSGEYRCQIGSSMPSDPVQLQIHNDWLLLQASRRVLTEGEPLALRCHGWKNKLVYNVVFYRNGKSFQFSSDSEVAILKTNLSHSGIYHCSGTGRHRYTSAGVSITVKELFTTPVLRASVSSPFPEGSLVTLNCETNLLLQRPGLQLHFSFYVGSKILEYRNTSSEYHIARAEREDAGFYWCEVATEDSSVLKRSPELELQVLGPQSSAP

cynomolgus FcRn = molecular target: T4, cynomolgus FcRn (cynomolgus, UniProt Q8SPV9); experiment: SPR, pH 6.0
T4 chain 1: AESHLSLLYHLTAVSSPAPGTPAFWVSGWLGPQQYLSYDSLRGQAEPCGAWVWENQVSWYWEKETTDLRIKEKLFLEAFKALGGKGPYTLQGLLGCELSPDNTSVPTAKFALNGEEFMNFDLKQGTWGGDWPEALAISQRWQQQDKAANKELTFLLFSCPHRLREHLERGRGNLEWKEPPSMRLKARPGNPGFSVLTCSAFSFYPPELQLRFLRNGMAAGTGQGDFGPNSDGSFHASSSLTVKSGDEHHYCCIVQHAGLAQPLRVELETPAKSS
T4 chain 2: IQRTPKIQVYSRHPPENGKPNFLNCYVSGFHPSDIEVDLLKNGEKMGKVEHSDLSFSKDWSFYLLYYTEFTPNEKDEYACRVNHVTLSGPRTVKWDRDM

human FcγRIIb (CD32B) = molecular target: T5, human FcγRIIb (CD32B) (human, UniProt P31994); experiment: SPR
T5 chain: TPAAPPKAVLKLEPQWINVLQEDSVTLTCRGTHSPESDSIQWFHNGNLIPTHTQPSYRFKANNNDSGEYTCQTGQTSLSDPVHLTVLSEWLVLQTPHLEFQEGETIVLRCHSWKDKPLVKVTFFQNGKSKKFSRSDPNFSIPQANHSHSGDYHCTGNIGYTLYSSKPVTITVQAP

[2] = molecular target: T6, human FcγRIIIb (NA1) CD16B (human, UniProt O75015); experiment: SPR
T6 chain: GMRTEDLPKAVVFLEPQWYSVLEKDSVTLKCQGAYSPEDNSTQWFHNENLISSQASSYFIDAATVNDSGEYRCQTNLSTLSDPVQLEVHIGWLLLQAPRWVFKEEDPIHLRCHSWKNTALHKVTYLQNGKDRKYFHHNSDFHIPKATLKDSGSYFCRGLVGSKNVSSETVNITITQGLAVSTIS

human FcRn = human FcRn (human, UniProt P55899); experiment: SPR, pH 6.0
murine FcRn = molecular target: T7, murine FcRn (mouse, UniProt Q61559); experiment: SPR, pH 6.0
T7 chain 1: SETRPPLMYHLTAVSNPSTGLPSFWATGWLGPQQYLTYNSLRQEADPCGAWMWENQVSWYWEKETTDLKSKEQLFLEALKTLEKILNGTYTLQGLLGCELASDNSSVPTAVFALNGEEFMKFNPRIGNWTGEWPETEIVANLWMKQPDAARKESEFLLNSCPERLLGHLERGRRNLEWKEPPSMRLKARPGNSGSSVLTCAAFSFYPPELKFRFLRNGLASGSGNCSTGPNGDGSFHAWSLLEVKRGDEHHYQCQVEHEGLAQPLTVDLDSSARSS
T7 chain 2: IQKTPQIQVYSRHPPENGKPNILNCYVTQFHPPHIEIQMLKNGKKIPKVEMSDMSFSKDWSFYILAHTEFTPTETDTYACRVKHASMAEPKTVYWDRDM

human FcγRIIa (CD32A) = molecular target: T8, human FcγRIIa (CD32A) (human, UniProt P12318); experiment: SPR
T8 chain: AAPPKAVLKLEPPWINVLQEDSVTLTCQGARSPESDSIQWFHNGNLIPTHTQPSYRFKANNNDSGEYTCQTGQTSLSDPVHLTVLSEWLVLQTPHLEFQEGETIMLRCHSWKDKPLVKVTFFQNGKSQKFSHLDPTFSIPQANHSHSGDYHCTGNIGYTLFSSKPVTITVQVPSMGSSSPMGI

murine FcγRIIb = molecular target: T9, murine FcγRIIb (mouse, UniProt P08101); experiment: SPR
T9 chain: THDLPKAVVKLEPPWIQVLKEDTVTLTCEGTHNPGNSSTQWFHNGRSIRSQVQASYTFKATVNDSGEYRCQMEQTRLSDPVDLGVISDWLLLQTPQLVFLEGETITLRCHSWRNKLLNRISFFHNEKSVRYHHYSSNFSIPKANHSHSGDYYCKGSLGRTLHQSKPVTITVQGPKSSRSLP

human FcγRI (CD64) = molecular target: T10, human FcγRI (CD64) (human, UniProt P12314); experiment: SPR
T10 chain: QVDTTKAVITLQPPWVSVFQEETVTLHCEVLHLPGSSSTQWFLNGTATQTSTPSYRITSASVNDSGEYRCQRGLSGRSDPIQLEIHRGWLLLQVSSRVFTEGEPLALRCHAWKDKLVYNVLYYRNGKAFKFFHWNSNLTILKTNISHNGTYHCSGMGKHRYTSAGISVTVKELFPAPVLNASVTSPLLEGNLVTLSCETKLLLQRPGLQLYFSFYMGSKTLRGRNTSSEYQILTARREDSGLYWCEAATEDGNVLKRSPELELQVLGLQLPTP

murine FcγRIII = molecular target: T11, murine FcγRIII (mouse, UniProt P08508); experiment: SPR
T11 chain: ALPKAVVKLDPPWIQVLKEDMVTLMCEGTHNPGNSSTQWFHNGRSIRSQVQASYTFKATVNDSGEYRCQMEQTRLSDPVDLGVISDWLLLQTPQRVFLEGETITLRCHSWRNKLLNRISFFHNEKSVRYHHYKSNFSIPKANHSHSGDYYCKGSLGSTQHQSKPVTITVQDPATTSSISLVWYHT

human FcγRIIc (CD32C) = molecular target: T12, human FcγRIIc (CD32C) (human, UniProt P31995); experiment: SPR
T12 chain: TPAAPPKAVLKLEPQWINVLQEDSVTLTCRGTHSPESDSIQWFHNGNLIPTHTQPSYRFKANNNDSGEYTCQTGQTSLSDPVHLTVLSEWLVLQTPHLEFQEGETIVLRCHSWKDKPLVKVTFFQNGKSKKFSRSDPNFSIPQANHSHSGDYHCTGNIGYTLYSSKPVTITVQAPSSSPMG

Measured: binding result

B1: EGFR/CD16A tandem diabody (full) (antibody)
chain 1: QVQLQESGPGLVKPSETLSLTCTVSGGSVSSGSYYWSWIRQPPGKGLEWIGYIYYSGSTNYNPSLKSRVTISVDTSKNQFSLKLSSVTAADTAVYYCARNPISIPAFDIWGQGTMVTVSSGGSGGSGGSSYVLTQPSSVSVAPGQTATISCGGHNIGSKNVHWYQQRPGQSPVLVIYQDNKRPSGIPERFSGSNSGNTATLTISGTQAMDEADYYCQVWDNYSVLFGGGTKLTVLGGSGGSQVQLVQSGAEVKKPGESLKVSCKASGYTFTSYYMHWVRQAPGQGLEWMGIINPSGGSTSYAQKFQGRVTMTRDTSTSTVYMELSSLRSEDTAVYYCARGSAYYYDFADYWGQGTLVTVSSGGSGGSGGSQPVLTQPPSVSVAPGKTARITCGGNNIGSKSVHWYQQKPGQAPVLVIYYDSDRPSGIPERFSGSNSGNTATLTISRVEAGDEADYYCQVWDTSSDHVLFGGGTKLTVLAAAGSHHHHHH
chain 2: QVQLQESGPGLVKPSETLSLTCTVSGGSVSSGSYYWSWIRQPPGKGLEWIGYIYYSGSTNYNPSLKSRVTISVDTSKNQFSLKLSSVTAADTAVYYCARNPISIPAFDIWGQGTMVTVSSGGSGGSGGSSYVLTQPSSVSVAPGQTATISCGGHNIGSKNVHWYQQRPGQSPVLVIYQDNKRPSGIPERFSGSNSGNTATLTISGTQAMDEADYYCQVWDNYSVLFGGGTKLTVLGGSGGSQVQLVQSGAEVKKPGESLKVSCKASGYTFTSYYMHWVRQAPGQGLEWMGIINPSGGSTSYAQKFQGRVTMTRDTSTSTVYMELSSLRSEDTAVYYCARGSAYYYDFADYWGQGTLVTVSSGGSGGSGGSQPVLTQPPSVSVAPGKTARITCGGNNIGSKSVHWYQQKPGQAPVLVIYYDSDRPSGIPERFSGSNSGNTATLTISRVEAGDEADYYCQVWDTSSDHVLFGGGTKLTVLAAAGSHHHHHH
no binding: all assays above
